# Results: patent publication US10221215 (NEW YORK UNIVERSITY, dated 2019)
# Positions of bridges follow the written chain, without caps; N, C: chain ends. Non-standard residues stand in square brackets, D forms with d. No end group written: not given here. Aib = CC(C)(N)C(=O)O
# Biological target: Ras (residues 1-166 of human Ha-Ras) (human, UniProt P01112 1-166)
# Experiment: cell-based or functional assay
row,Binder,"% Inhibition (Sos-mediated nucleotide exchange from Ras, mantGDP)"
1,"FEGIYRLELLKAEEAN (staple (positions not given here); also: HBS: N-terminal main-chain i,i+4 H-bond replaced by C-C bond (ring-closing metathesis), residues 1-4) [HBS 7]",64%
2,"FEGLLRLWLRK[Aib]EEAN (staple (positions not given here); not fully specified (C-terminus, bridges); also: hydrogen bond surrogate: N-terminal main-chain i,i+4 H-bond replaced by C-C bond) [HBS 9]",35%
3,AEGIYRADILRTEEGN [Peptide 4],< 10%
4,"FEAIYRLELLKAEEAN (staple (positions not given here); also: HBS: N-terminal main-chain i,i+4 H-bond replaced by C-C bond (ring-closing metathesis), residues 1-4) [HBS 13]",50%
5,FEAIYRLEKLKAEEAN [Peptide 15],50%
6,FEGIYRLELLK[Aib]EE[Aib]N [Peptide 11],30%
7,FEGIYRLELLKAEEAN [Peptide 7],37%
8,"FEGLLRLWLRKAEEAN (staple (positions not given here); also: HBS: N-terminal main-chain i,i+4 H-bond replaced by C-C bond (ring-closing metathesis), residues 1-4) [HBS 12]",55%
9,"AEGIYRLELLKAEAAA (staple (positions not given here); also: HBS: N-terminal main-chain i,i+4 H-bond replaced by C-C bond (ring-closing metathesis), residues 1-4) [HBS 7^mut]",15%
10,FEGIYRTELLKAEEAN [Peptide 6],20%
11,"FEAIYRLEKLKAEEAN (staple (positions not given here); lactam 9-13; also: HBS: N-terminal main-chain i,i+4 H-bond replaced by C-C bond (ring-closing metathesis), residues 1-4) [HBS 15^]",< 10%
12,FEGLLRLWLRK[Aib]EE[Aib]N [Peptide 10],50%
13,FEAIYRLELLKAEEAN [Peptide 13],40%
14,FEGIYRTDILRTEEGN [Peptide 1],13%
15,FEGIYRTDILR [Peptide 5],< 10%
16,"FEGLLRLWLRK[Aib]EE[Aib]N (staple (positions not given here); not fully specified (C-terminus, bridges); also: hydrogen bond surrogate: N-terminal main-chain i,i+4 H-bond replaced by C-C bond) [HBS 10]",60%
17,FEGLLRLWLRKAEEAN [Peptide 12],50%
18,"FEGIYRLEKLKAEEANRR (staple (positions not given here); also: HBS: N-terminal main-chain i,i+4 H-bond replaced by C-C bond (ring-closing metathesis), residues 1-4) [HBS 16]",56%
19,AEGIYRTDILRTEEGN [Peptide 3],< 10%
20,"FEGIYRLELLK[Aib]EE[Aib]N (staple (positions not given here); not fully specified (C-terminus, bridges); also: hydrogen bond surrogate: N-terminal main-chain i,i+4 H-bond replaced by C-C bond) [HBS 11]",20%
21,FGEGIYRTDILRTEEGN [Peptide 2],< 10%
22,FEGIYRLELLK [Peptide 8],< 5%
23,"FEGIYRLELLK (staple (positions not given here); also: HBS: N-terminal main-chain i,i+4 H-bond replaced by C-C bond (ring-closing metathesis), residues 1-4) [HBS 8]",< 5%
24,"FEGIYRTELLKAEEAN (staple (positions not given here); also: HBS: N-terminal main-chain i,i+4 H-bond replaced by C-C bond (ring-closing metathesis), residues 1-4) [HBS 6]",40%
25,"FEGIYRTDILRTEEGN (staple (positions not given here); also: HBS: N-terminal main-chain i,i+4 H-bond replaced by C-C bond (ring-closing metathesis), residues 1-4) [HBS 1]",11%
